Literature values in PMC9594322.
pKd: −log10 of the molar value.

Molecular target: HIF-1β PAS-B (Homo sapiens) (UniProt P27540)
Sequence (P27540 356-470): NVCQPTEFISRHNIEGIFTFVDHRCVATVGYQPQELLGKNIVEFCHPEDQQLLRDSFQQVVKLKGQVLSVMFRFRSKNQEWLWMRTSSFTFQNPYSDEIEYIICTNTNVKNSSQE

HIF-1α PAS-B, sequence (Q16665 238-349): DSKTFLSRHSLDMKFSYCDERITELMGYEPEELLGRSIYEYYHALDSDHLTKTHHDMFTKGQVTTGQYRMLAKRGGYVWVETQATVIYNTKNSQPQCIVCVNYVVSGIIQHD

pKd: 6.42
Substance: HIF-1α PAS-B (from UniProt Q16665)
